Data taken from patent US11898183B2, “Programmed microorganisms to attenuate a disease” (priority 2020, dated 2024).

Tested on: pathway specific substrates
Assay: Enzyme functionality of pathway enzyme homologs and fusion constructs in lysed E. coli cell extracts, product by HPLC
Type: biochemical, E. coli BL21
Conditions: recombinant E. coli BL21 clone, lysed cell extract
How it was run: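 Enzymes and fusion constructs were expressed in E. coli BL21 (pET28, T7 promoter) with 0.1 mM IPTG at 30 °C for ~20 h in M9 medium. Cleared freeze-thaw lysates were incubated with pathway-specific substrates. Products were quantified by HPLC relative to empty-plasmid lysates.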

B1: hydroxycinnamoyl-CoA: quinate hydroxycinnamoyltransferase p-coumaroyl quinate 3′-hydroxylase fusion (HCTC3H) (SEQ ID NO: 14) Coffea canephora (protein, listed as Coffea canephora)
chain: MKIEVKESTMVRPAQETPGRNLWNSNVDLVVPNFHTPSVYFYRPTGSSNFFDAKVLKDALSRALVPFYPMAGRLKRDEDGRIEIECNGEGVLFVEAESDGVVDDFGDFAPTLELRRLIPAVDYSQGISSYALLVLQVTYFKCGGVSLGVGMRHHAADGFSGLHFINSWSDMARGLDVTLPPFIDRTLLRARDPPQPQFQHIEYQPPPALKVSPQTAKSDSVPETAVSIFKLTREQISALKAKSKEDGNTISYSSYEMLAGHVWRCACKARGLEVDQGTKLYIATDGRARLRPSLPPGYFGNVIFTATPIAIAGDLEFKPVWYAASKIHDALARMDNDYLRSALDYLELQPDLKALVRGAHTFKCPNLGITSWVRLPIHDADFGWGRPIFMGPGGIAYEGLSFILPSPTNDGSMSVAISLQGEHMKLFQSFLYDIGGGGSGGGGSGGGGSMALLLILLPVAFIFLAYSLYERLRFKLPPGPRPKPVVGNIYDIKPVRFKCYAEWSKLYGPIFSVYFGSQLNTVVNTAELAKEVLKDNDQQLADRYRSRPSARMSRNGQDLIWADYGPHYVKVRKLCNLELFTPKRLEGLRPLREDEVTAMVDSIFKDCTKPENKGKSLLMRNYLGSVAFNNITRLTFGKRFMNSEGVVDEQGQEFKGIVSNGIRIGAKLSVADHIPWLRWMFVGENEDLDKHNARRDKLTRMIMEEHTLARQKSGNTKQHFVDALLTLQKQYELSDDTVIGLLWDMITAGMDTTTISVEWAMAELVKNPRVQQKAQEELDRVIGSDRIMTEADFAKLPYLQCVAKEALRLHPPTPLMLPHRANANVKIGGYDIPKGSIVHVNVWAIARDPAAWKNPLEFRPERFLEEDVDIKGHDYRLLPFGAGRRICPGAQLALNLVTSMLGHLLHHFTWSPPPGVRPEEIDLEESPGTVTYMRTPLQAVATPRLPAHLYNRVPVE
Substrate tested: Coumaroyl coA
  Enzyme activity in terms of product formation (in %): 89%

B2: 2-Deoxy-d-ribose-5-phosphate aldolase (DERA) (SEQ ID NO: 50) Desulfatibacillum aliphaticivorans (protein)
chain: MTGPKICVVGACNIDLISYVERLPVLGETLHGKKFSMGFGGKGANQAVMAAKLGGEVAMVGKLGRDVFGENTLANFKKLGVNVSHVHFTEEAFSGVAPIAVDDNGANSIIIVTGASDLLSAEEIRAAENAIAKSKVLVCQLEIPMEQNLEALRIARKNNVPTIFNPAPARPGLPDELYQLSDIFCPNESETEILTGMPVETMEQAEQAAKALLERGPKTVILTLGERGCLLVDANGARHIPTRKVEAIDTTGAGDCFVGSLAFFLAAGKSLEDAINRANKIAAVSVCGQGTQSSFPGASELDPEILSDIQPAESQAPAMSAKDLAQYIDHTLLKPEAPLSAFDKICEEAILHQFRSVCVNSCKISYIAKKLKGTGVDACAVIGFPLGAMSTAAKAFEAKQAVMDGAAELDMVINVGALKSGDFDAVFDDIKAVRDAAPLPIILKVIIETCLLTDEEKARACRIAKAADADFVKTSTGFSTGGATLEDIALMRDTVGPYMGVKASGGIKDAKTAIAMIEAGATRIGAGAGVEIVSGLQSDADGSY
modifications: Depicts the amino acid sequence of 2-Deoxy-d- ribose-5-phosphate aldolase (DERA) of Desulfatibacillum aliphaticivorans
Substrate tested: Desmethylepipodophyllotoxin glucopyranoside
  Enzyme activity in terms of product formation (in %): 83%

B3: Caffeoyl CoA O-methyltransferase (CCoAOMT) (SEQ ID NO: 16) Eleocharis dulcis (protein)
chain: MSTTTTTQTKTETQSQTGAQNGAEQQTRHSEVGHKSLLQSDALYQYILETSVYPREPECMKELRDITAKHPWNLMTTSADEGQFLNLLLKLIGAKKTMEIGVYTGYSLLATALAIPEDGTILAMDINRENYELGLPVIEKAGVAHKIDFREGPALPVLDQLIEDPANLGSFDFIFVDADKDNYLNYHKRLIELVKVGGVIGYDNTLWNGSVVLPADAPMRKYIRYYRDFVLELNKALAADPRIEISQLPVGDGITLCRRVK
modifications: Depicts the amino acid sequence of enzyme Caffeoyl CoA O-methyltransferase (CCoAOMT)
Substrate tested: Caffeoyl coA
  Enzyme activity in terms of product formation (in %): 61%

B4: Caffeoyl CoA O-methyltransferase (CCoAOMT) (SEQ ID NO: 18) Chamaecyparis formosensis (protein)
chain: MATVEATKDSTQQVSRHQEVGHKSLLQSDALYQYILETSVYPREPEPMRELREITAKHPWNLMTTSADEGQFLHLLLKLINAKNTMEIGVYTGYSLLSTALALPDDGKILAMDINRENYELGLPVIQKAGVAHKIDFREGPALPVLDQMLENKEMHGSFDFIFVDADKDNYLNYHKRLIDLVKIGGVIGYDNTLWNGSVVAPPDAPMRKYVRYYRDFVIELNKALAADPRIEISQIPVGDGITLCRRII
modifications: Depicts the amino acid sequence of Caffeoyl CoA O-methyltransferase (CCoAOMT) of Chamaecyparis formosensis
Substrate tested: Caffeoyl coA
  Enzyme activity in terms of product formation (in %): 95%

B5: Cinnamte 4 hydroxylase 4 coumarate coenzyme ligase fusion (C4H4CL) (SEQ ID NO: 12) Azospirillum sp. (protein)
chain: MDLLLLEKTLLALFIAATIAITISKLRGKRFKLPPGPIPVPVFGNWLQVGDDLNHRNLTDLAKRFGDIFLLRMGQRNLVVVSSPELAKEVLHTQGVEFGSRTRNVVFDIFTGKGQDMVFTVYGTLAEMRRIMTVPFFTNKVVQQYRFGWEFEAQSVVDDVKKNPEACSSGIVLRRRLQLMMYNIMYRIMFDRRFESEEDPLFVKLKALNGERSRLAQSFEYNYGDFIPILRPFLKGYLKLCKEVKDRRLQLFKDYFVDERKKLGSTKSTTNEGLKCAIDHILDAQQKGEINDDNVLYIVENINVAAIETTLWSIEWGIAELVNHQKIQNKVREEIDRVLGPGHQVTEPDLQKLPYLQAVIKETLRLRMAIPLLVPHMNLHDAKLSGFDIPAESKILVNAWWLANNPAQWKKPEEFRPERFLEEESHVEANGNDFRYLPFGVGRRSCPGIILALPILGITLGRLVQNFELLPPPGQSKIDTAEKGGQFSLHILKHSTIVCKPRSFNGGGGSGGGGSGGGGSMTIQRWWRNRESLNRVLCDLLAGEFARLRPGGSPPAHPHRWPETLPLGPDGVGADSLDLLQLAAALNEALHLHRSGIEDYLLMHRTVGDWLDVCEAALGRFDGALSFRTSGSTGEGKRCEHPLAALEEEADALAALLSGGAEAPRRVVSVVPAHHIYGFLFTVLLPDRLAVPVVDGRGTSPGGLAARLGPGDLVVAHPDWWGALLRSGAALPDGVTGTSSTAPCPPDTARGVRGVGLARLVEVFGSSETAGLGWRESPDAPFRPFPWWRFGDDGRVTRRLADGTVLSATLQDRLSHDEEGFRPSGRLDTVVQVGGVNVSLAGVQAHLAGHPDVEAAAVRLMRPEEGTRLKAFIVPARTAPPREELYRRLTDWIEATLPAPHRPRALAFGPALPVNGMGKPCDWPLATCR
modifications: Depicts the amino acid sequence of the enzyme Cinnamte 4 hydroxylase 4 coumarate coenzyme ligase fusion (C4H4CL)
Substrate tested: Cinnamate
  Enzyme activity in terms of product formation (in %): 97%

B6: Glycosyltransferase (UGT) (SEQ ID NO: 48) Barbarea vulgaris (protein, listed as Barbarea vulgaris)
chain: MKSELVFIPYPGIGHLRPTVEVAKLLVDREPRLSISVFILPFISGDEVGASDYISALSAASNDRLRYKVIFTGDQETAEPTKLTLHIENQVPKVRTAVAKLIDEYSKLLDSPKIVGFVLDMFCTSMIDVANEFELPSYMFFTSSAGILAVSFHVQVLYDEKKCNFSETMFEDSEAELILPSLTRPYPVKSLPYALFRTEMLIMHVNLARRFRELKGILVNTVDELEPHALKFLLSGITPPAYPVGPLLHLESNQDDESEDEKRSEIIMWLDEQPASSVVFLCFGSMGGFSEEQTREIAIALERSGHRFLWSLRRESPNIDKELPGEFTNLEEVLPEGFFDRTKGIGKVIGWAPQVAVLENPAIGGFVTHGGWNSVLESLWFGVPTAMWPLYAEQKFNAFVMVEELGLAVEIKKYWRGDLLLGRSAMEIVTADEIERGITCLMQQDSDVRKRVKEMKGKCHVALMDGGSSTLALDKFVEDVTKNI
Substrate tested: Desmethylepipodophyllotoxin
  Enzyme activity in terms of product formation (in %): 43%
